43 variants from the Human Domainome abundance scans (Beltran et al. 2025) can be followed below.

± gives the uncertainty stated by the source.

Sequences and labels used below:
B1: CD2-associated protein, residues 271 to 331; numbered along this chain, Q9Y5K6 (parent)
chain: KEYCRTLFAYEGTNEDELTFKEGEIIHLISKETGEAGWWRGELNGKEGVFPDNFAVQINEL

The variants in this data set derive from B1. As to the kind of experiment: abundance fitness (aPCA) (normalised: wild type 0, dead -1); higher = more abundant; growth selection in yeast, the domain comes from the species named. Particulars: Homo sapiens.
On to KEYCRTLFAYEGTNEDELTFKEGEIIHLISKETGQAGWWRGELNGKEGVFPDNFAVQINEL [E35Q], for which the abundance fitness turned out to be 0.036 ± 0.067. For KEYCRTLFAYEGTNEDELTFKEGEIIHLISKETGYAGWWRGELNGKEGVFPDNFAVQINEL [E35Y], the abundance fitness worked out at 0.055 ± 0.13. For KEYCRTLFAYEGTNEDELTFKEGEIIHLISKETGLAGWWRGELNGKEGVFPDNFAVQINEL [E35L], the abundance fitness is -0.035 ± 0.052. Turning to KEYCRTLFAYEGTNEDELTFKEGEIIHLISKETGRAGWWRGELNGKEGVFPDNFAVQINEL [E35R], the abundance fitness is 0.034 ± 0.063.

Turning to KEYCRTLFAYEGTNEDELTFKEGEIIHLISKETGTAGWWRGELNGKEGVFPDNFAVQINEL [E35T], the abundance fitness was determined as 0.132 ± 0.079. With KEYCRTLFAYEGTNEDELTFKEGEIIHLISKETGIAGWWRGELNGKEGVFPDNFAVQINEL [E35I], the abundance fitness was determined as 0.119 ± 0.12. As for KEYCRTLFAYEGTNEDELTFKEGEIIHLISKETGEAGWWRGELNKKEGVFPDNFAVQINEL [G45K], the figure is -0.438 ± 0.088. Take KEYCRTLFAYEGTNEDELTFKEGEIIHLISKETGEAGWWRGELNEKEGVFPDNFAVQINEL [G45E]: the abundance fitness is -0.448 ± 0.086. KEYCRTLFAYEGTNEDELTFKEGEIIHLISKETGEAGWWRGELNGNEGVFPDNFAVQINEL [K46N]: the abundance fitness is -0.286 ± 0.18. Consider KEYCRTLFAYEGTNEDELTFKEGEIIHLISKETGEAGWWRGELNGLEGVFPDNFAVQINEL [K46L], for which the abundance fitness was -0.223 ± 0.054. With KEYCRTLFAYEGTNEDELTFKEGEIIHLISKETGEAGWWRGELNGIEGVFPDNFAVQINEL [K46I], the abundance fitness is -0.309 ± 0.13. For the variant KEYCRTLFAYEGTNEDELTFKEGEIIHLISKETGEAGWWRGELNGAEGVFPDNFAVQINEL [K46A], the abundance fitness is -0.134 ± 0.091. In the case of KEYCRTLFAYEGTNEDELTFKEGEIIHLISKETGEAGWWRGELNGKEGVFPDAFAVQINEL [N53A], the abundance fitness was -0.003 ± 0.052. The value for KEYCRTLFAYEGTNEDELTFKEGEIIHLISKETGEAGWWRGELNGKEGVFPDEFAVQINEL [N53E] was -0.036 ± 0.11; that for KEYCRTLFAYEGTNEDELTFKEGEDIHLISKETGEAGWWRGELNGKEGVFPDNFAVQINEL [I25D] was -0.285 ± 0.11; that for KEYCRTLFAYEGTNEDELTFKEGEVIHLISKETGEAGWWRGELNGKEGVFPDNFAVQINEL [I25V] was -0.083 ± 0.053. Turning to KEYCRTLFAYEGTNEDELTFKEGEIIHLISKETGEAGWWRGLLNGKEGVFPDNFAVQINEL [E42L], the abundance fitness is -0.218 ± 0.082.

In the case of KEYCRTLFAYEGTNEDELTFKEGEIIHLISKETGEAGWWRGSLNGKEGVFPDNFAVQINEL [E42S], the abundance fitness is -0.05 ± 0.073.

Take KEYCRTLFAYEGTNEDELTFKEGEIIHLISKETGEAGWWRGNLNGKEGVFPDNFAVQINEL [E42N]: the abundance fitness is -0.078 ± 0.24. For the variant KEYCRTLFAYEGTNEDELTFKEGEIIHLISKETGEAGWWRGWLNGKEGVFPDNFAVQINEL [E42W], the abundance fitness is -0.313 ± 0.1. The value for KEYCRTLFAYEGTNEIELTFKEGEIIHLISKETGEAGWWRGELNGKEGVFPDNFAVQINEL [D16I] was -0.699 ± 0.19. KEYCRTLFAYEGTNEDELTFKEGEIIHLISKETGEAGWWRGEVNGKEGVFPDNFAVQINEL [L43V]: the abundance fitness was -0.308 ± 0.078. As for KEYCRTLFAYEGTNEDESTFKEGEIIHLISKETGEAGWWRGELNGKEGVFPDNFAVQINEL [L18S], the figure is -0.766 ± 0.089; as for KEYCRTLFAYEGTNEDETTFKEGEIIHLISKETGEAGWWRGELNGKEGVFPDNFAVQINEL [L18T], -0.541 ± 0.11. In the case of KEYCRTLFAYEGTNEDELTFKEGEIIHLISKETGEAGWWRGELNGKEMVFPDNFAVQINEL [G48M], the abundance fitness was -0.947 ± 0.15. As to KEYCRTLFAYEGTNEDELTFKEGEIIHLISKETGEAGWWRGELNGKEEVFPDNFAVQINEL [G48E], the abundance fitness is -0.688 ± 0.08. Regarding KEYCRTLFAYEGTNEDELTFKEGEIIHLISKETGEAGMWRGELNGKEGVFPDNFAVQINEL [W38M], the abundance fitness was -0.17 ± 0.11. As for KEYCRTLFAYEGTNEDELTFKEGEIIHLISKETGEAGYWRGELNGKEGVFPDNFAVQINEL [W38Y], the figure is -0.043 ± 0.079; as for KEYCRTLFAYEGTNEDELTFKEGEIIHLISKETGEAGFWRGELNGKEGVFPDNFAVQINEL [W38F], -0.145 ± 0.12. KEYCRTLFAYEGTNEDELTFKEGEIIHLISKETGEAGWWRGELNGKEGVFPMNFAVQINEL [D52M]: the abundance fitness was determined as 0.077 ± 0.12. In the case of KEYCRTLFAYEGTNEDELTFKEGEIIHLISKETGEAGWWRGELVGKEGVFPDNFAVQINEL [N44V], the abundance fitness was -0.791 ± 0.092. As for KEYCRTLFAYEGTNEDELTFKEGEIIHLISKETGEAGWWRGELPGKEGVFPDNFAVQINEL [N44P], the figure is -1.14 ± 0.2. For the variant KEYCRTLFAYEGTNEDELTFKEGEIIHLISKETGEAGWWRGELYGKEGVFPDNFAVQINEL [N44Y], the abundance fitness was -0.363 ± 0.084. The value for KEYCRTLFAYEGTNEDELTFKEGEIIHLISKETGEAGWWRGELWGKEGVFPDNFAVQINEL [N44W] was -0.568 ± 0.25. Turning to KEYCRTLFAYEGTNEDELTFGEGEIIHLISKETGEAGWWRGELNGKEGVFPDNFAVQINEL [K21G], the abundance fitness is -0.027 ± 0.058.

For the variant KEYCRTLFAYEGTNEDELTFCEGEIIHLISKETGEAGWWRGELNGKEGVFPDNFAVQINEL [K21C], the abundance fitness is -0.16 ± 0.14. Consider KEYCRTLFAYEGTNEDELTFKEGEIIHLISKETGEAGWWDGELNGKEGVFPDNFAVQINEL [R40D], for which the abundance fitness was -0.546 ± 0.099.

Take KEYCETLFAYEGTNEDELTFKEGEIIHLISKETGEAGWWRGELNGKEGVFPDNFAVQINEL [R5E]: the abundance fitness was -0.154 ± 0.18. With KEYCATLFAYEGTNEDELTFKEGEIIHLISKETGEAGWWRGELNGKEGVFPDNFAVQINEL [R5A], the abundance fitness was -0.426 ± 0.15. The value for KEYCRTLFAYEGTNEDELTFKEGEIIHLISKETGEAGWWRGELNGKEGVFGDNFAVQINEL [P51G] was -0.893 ± 0.096.

Consider KLYCRTLFAYEGTNEDELTFKEGEIIHLISKETGEAGWWRGELNGKEGVFPDNFAVQINEL [E2L], for which the abundance fitness was -0.136 ± 0.074. With KEYCRTLFAYEGTNEDELTFKEGEIIHLISKETGEAGWWRGELNGKEGVFPDNFAVQITEL [N59T], the abundance fitness was -0.147 ± 0.1.

KEYCRLLFAYEGTNEDELTFKEGEIIHLISKETGEAGWWRGELNGKEGVFPDNFAVQINEL [T6L]: the abundance fitness was -0.88 ± 0.12.
